Reference: patent US20250066499A1 (SUNSHINE GUOJIAN PHARMACEUTICAL SHANGHAI, published 2025)
Where a chain is given by its changes, count along the chain named.

Key:
CD73-ND-his [1] = biological target: T1, CD73-ND-his (human, UniProt P21589 27-317); test: ELISA, high plateau value (OD 450 nm)
T1 construct: Biotinylated and captured on streptavidin in the ELISA
T1 sequence: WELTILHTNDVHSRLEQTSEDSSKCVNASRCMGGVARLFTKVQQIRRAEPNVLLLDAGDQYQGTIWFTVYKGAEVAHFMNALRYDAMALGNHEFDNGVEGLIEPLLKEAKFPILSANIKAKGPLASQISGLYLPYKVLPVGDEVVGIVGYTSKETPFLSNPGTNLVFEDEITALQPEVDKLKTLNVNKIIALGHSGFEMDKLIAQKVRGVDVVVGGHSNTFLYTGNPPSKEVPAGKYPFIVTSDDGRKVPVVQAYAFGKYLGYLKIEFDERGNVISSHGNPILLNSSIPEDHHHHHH
Experimental: (§1) The ELISA plates were coated with SA protein diluted to 1.5 μg/mL in coating buffer (50 mM carbonate coating buffer, pH 9.6) and incubated overnight at 4° C. The supernatant was discarded, and the plates were washed three times with PBST. Then, 5% skimmed milk powder prepared with PBS was added for blocking and the plates were incubated for 2 h at 37° C. After washing the plates once with PBST, CD73-biotin protein (prepared by biotinylating CD73-His protein according to the EZ-Link NHS-Biotin Reagent instructions) was diluted to 0.5 μg/mL and added at 100 μL/well for incubation at room temperature for 1 h. The plates were washed three times with PBST, and the prepared murine-derived monoclonal antibodies against human CD73 were serially diluted with 1% BSA buffer prepared with PBST and added to the ELISA plates at 100 μl/well. The plates were incubated at 37° C. for 1 h. After washing the plates three times with PBST, HRP-labeled goat anti-mouse IgG secondary antibody was added and the plates were incubated for 30 min at 37° C. After washing the plates three times with PBST, the residual droplets were patted dry on absorbent paper as much as possible. Then, 100 μl of TMB color developing solution was added to each well, and the plates were incubated in the dark at room temperature for 5 min for color development. Subsequently, 50 μl of 2M H₂SO₄ stop solution was added to each well to terminate the substrate reaction. The OD values were read at 450 nm using a multimode microplate reader to analyze the binding ability of the tested antibodies to the target antigen human CD73-His.
(§2) Referring to the experimental method in Example 3, the affinity of 48A11-HuV33 for various mutant proteins of CD73-ND was determined. The SA protein was diluted to 1 μg/mL for coating the ELISA plates, and the biotinylated CD73 protein (CD73-biotin) was used at a concentration of 0.1 μg/mL.

CD73-ND-P139A = biological target: T2, CD73-ND-P139A (human, UniProt P21589 27-317); test: ELISA, high plateau value (OD 450 nm)
T2 construct: Alanine mutant of CD73-ND
T2 sequence: T1 sequence with P139A
Experimental: as §1, §2

CD73-ND-V140A = biological target: T3, CD73-ND-V140A (human, UniProt P21589 27-317); test: ELISA, high plateau value (OD 450 nm)
T3 construct: Alanine mutant of CD73-ND
T3 sequence: T1 sequence with V140A
Experimental: as §1, §2

CD73-ND-L184A = biological target: T4, CD73-ND-L184A (human, UniProt P21589 27-317); test: ELISA, high plateau value (OD 450 nm)
T4 construct: Alanine mutant of CD73-ND
T4 sequence: T1 sequence with L184A
Experimental: as §1, §2

CD73-ND-D142A = biological target: T5, CD73-ND-D142A (human, UniProt P21589 27-317); test: ELISA, high plateau value (OD 450 nm)
T5 construct: Alanine mutant of CD73-ND
T5 sequence: T1 sequence with D142A
Experimental: as §1, §2

CD73-ND-his [2] = biological target: T1, CD73-ND-his; test: ELISA as in Example 3, antigen CD73-ND-his, antibody titrated, absorbance 450 nm

B1: 48A11-HuV33 (antibody, human IgG4, V domains shown)
VH: QVQLVQSGAEVKKPGASVKVSCKASGYTFTSYWMHWVRQAPGQGLEWIGEINPSIGRTNYNEKFKSRVTLTRDTSTSTAYMELSSLRSEDTAVYYCARRVYGTMDYWGQGTLVTVSS
VL: DIQMTQSPSSLSASVGDRVTITCKASQDINSYLSWFQQKPGKSPKLLIYRANIWVDGVPSRFSGSGSGQDYTFTISSLQPEDIATYYCLQYDELYTFGQGTKVEIK
notes: Humanized
Binder B1 has a Top (CD73-ND-his [1]) of 2, a Top (CD73-ND-P139A) of 0.871 and a Top (CD73-ND-V140A) of 2.05. The Top (CD73-ND-L184A) was 1.7 and the Top (CD73-ND-D142A) was 1.84.

B2: 56B10-HuV31 (antibody, human IgG4, V domains shown)
VH: QVQLQQSGAEVKKPGASVKVSCKASGYTFTRYYIYWVRQRPGQGLEWIGWIYPGNFNTKYNEKFKGRATLTADTSASTAYMELSSLTSEDTAVYYCARDVYDYAGFAYWGQGTLVTVSS
VL: DIQLTQSPSFLSASVGDRVTITCKASQGVATAVAWYQQKPGQSPKLLIYWASTRHTGVPDRFSGSGSGTEFTLTISSLQPEDFATYYCQQYSSYPWTFGQGTKVEIK
notes: Humanized
For B2, the “EC50 (read off the curve)” value (CD73-ND-his [2]) was about 0.08 nM.
